Measurements published in US7358353B2, “Nucleic acid and corresponding protein named 158P1D7 useful in the treatment and detection of bladder and other cancers” (Agensys, Inc., priority 2000, dated 2008).

Biological target: T1, 158P1D7 protein (Homo sapiens, UniProt Q9H5Y7)
T1 construct: from tissue; host or cells: formalin fixed, paraffin embedded tumor tissue from patients (bladder transitional cell carcinoma, breast ductal carcinoma, lung carcinoma)
Assay: Immunohistochemistry of cancer patient specimens with anti-158P1D7 MAb (Table LVIII)
Source text: FIG. 36. Detection of 158P1D7 protein by immunohistochemistry in various cancer patient specimens. Tissue was obtained from patients with bladder transitional cell carcinoma, breast ductal carcinoma and lung carcinoma. […] (C) breast infiltrating ductal carcinoma, moderately differentiated, (D) breast infiltrating ductal carcinoma, moderate to poorly differentiated, (E) lung squamous cell carcinoma, (F) lung adenocarcinoma, well differentiated.
The sections were dewaxed, rehydrated and treated with antigen retrieval solution (Antigen Retrieval Citra Solution; BioGenex, 4600 Norris Canyon Road, San Ramon, Calif., 94583) at high temperature. Sections were then incubated in mouse monoclonal anti-158P1D7 antibody, M15-68(2)22, for 3 hours. The slides were washed three times in buffer and further incubated with DAKO EnVision+™ peroxidase-conjugated goat anti-mouse immunoglobulin secondary antibody (DAKO Corporation, Carpenteria, Calif.) for 1 hour. The sections were then washed in buffer, developed using the DAB kit (SIGMA Chemicals), counterstained using hematoxylin, and analyzed by bright field microscopy. […] 49.3% of bladder transitional cell carcinoma samples tested were positive for 158P1D7 (Table LVIII).

[1] = Breast Carcinoma patient specimens
[2] = Lung Carcinoma patient specimens

% No. Positive (Bladder TCC patient specimens): 49.3%
Number Positive (Bladder TCC patient specimens): 35
% No. Positive [1]: 90.9%
Number Positive [1]: 11
% No. Positive [2]: 23.1%
Number Positive [2]: 26
Substance: 158P1D7 protein
